Results reported in the supplement of paper PMC10567573.
± gives the standard deviation.

Assay: protein stability index of a GFP-peptide fusion (GPS, HEK-293T) (PSI 1-6); higher = more stable
[1] = treatment: DMSO, c terminus: a fixed tail appended
[2] = treatment: MLN4924 1 uM, 8 h, c terminus: a fixed tail appended
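Note: 24-mer peptide tiles fused after GFP, lentivirally expressed, FACS-sorted into six equal bins by GFP/DsRed ratio, decoded by Illumina sequencing, PSI is the read-weighted mean bin number.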

Sequence | protein stability index [1] | protein stability index [2] | protein stability index (treatment: DMSO, c terminus: native) | protein stability index (treatment: MLN4924 1 uM, 8 h, c terminus: native)
ENITTVSVIKDHHTRSITSCCFDP [WDR88] | 3.55 ± 0.28 | 3.78 ± 0.16 | – | –
GDLSGGQVLKKIAQKALDLPSSGE [HMOX1] | 4.77 ± 0.37 | 4.8 ± 0.13 | – | –
HTLNNLVEKLLREEAEGARWTSYR [TRIM35] | 2.48 ± 0.2 | 2.57 ± 0.19 | – | –
MQAQASIEGAPEVTMSSLFKHILR [SLC25A25] | 2.36 ± 0.32 | 2.14 ± 0.13 | – | –
QILDSLSYMRNENVISELNIEDYF [FBXO39] | 2.32 ± 0.29 | 2.2 ± 0.12 | – | –
YTRIWSLHDARLLRTIPSPYPASK [DCAF4] | 2.46 ± 0.48 | 2.87 ± 0.17 | – | –
QILKDTKSITSAMNELQHDLDVVS [TPH1] | 3.82 ± 0.24 | 3.97 ± 0.092 | – | –
ATKPSHWCSVAYWEHRTRVGRLYA [SMAD6] | 2.62 ± 0.55 | 1.91 ± 0.17 | – | –
NCKRERDARVKRKLRGPEPAATEA [TBX6] | 4.84 ± 0.42 | 4.66 ± 0.22 | – | –
ALSDAEFEGEGDYEEGMYADWWQE [P3H4] | 4.97 ± 0.23 | 5.15 ± 0.17 | – | –
VRQLERENAELESRIQEWYEFQIP [KRT36] | 3.41 ± 0.16 | 3.43 ± 0.42 | – | –
VASMVLGECRQMSSSSQIGNDSFQ [CLCN6] | 2.87 ± 0.32 | 2.67 ± 0.27 | – | –
STNLGVNQAGFTLHSAIYAARPDV [ADD1] | 3.02 ± 0.18 | 3.08 ± 0.35 | – | –
LPETLNSPLLETFSDLQVYSYRRL [SLC22A15] | 2.4 ± 0.1 | 2.81 ± 0.27 | – | –
VAGGLVACRVTELQQQPLCTSVNT [LRRC59] | 2.39 ± 0.5 | 2.59 ± 0.18 | – | –
APPQGSCGDELPWTLQRRLTRLRT [PLEKHN1] | 3.33 ± 0.26 | 3.51 ± 0.44 | – | –
LDFCDFTAEMARVLTDSNHVPLQR [FBXO33] | 3.07 ± 0.46 | 3.26 ± 0.34 | – | –
PGHSGVSCEEVAASSASLEPMWSG [EMID1] | – | 5.08 ± 0.08 | – | –
VDNARIVLQIDNARLAADDFRVKY [KRT18] | 2.58 ± 0.31 | 2.77 ± 0.21 | – | –
DLVLDEEGARAAGLGELGAALLQL [ESRRA] | 3.94 ± 0.19 | 4.05 ± 0.17 | – | –
PPTYPTKYFGCELGAQTQFDVKND [EIF5] | 4.35 ± 0.17 | 4.494 ± 0.038 | – | –
LEASNYQMMPYMQPVMQSDRTAIR [KLHL13] | 3.9 ± 0.38 | 4.17 ± 0.25 | – | –
SHAGKVVLRSWYEKNKHIFPASRW [FAM50A] | 2.4 ± 0.3 | 2.58 ± 0.21 | – | –

Sequence | protein stability index [1] | protein stability index [2] | protein stability index (treatment: DMSO, c terminus: native) | protein stability index (treatment: MLN4924 1 uM, 8 h, c terminus: native)
HIKLHSGEKPFKCHLCNYACRRRD [IKZF1] | 2.55 ± 0.23 | 2.93 ± 0.61 | – | –
DSLGGSQEMVQRPQPHRNRAGLDL [TRAF3IP2] | 4.87 ± 0.23 | 4.58 ± 0.41 | – | –
HFQEAIDFIDCVREKGGKVLVHCE [DUSP5] | 2.76 ± 0.39 | 2.76 ± 0.53 | – | –
CESCVDLLFVRGAGNCPECGTPLR [MNAT1] | 4.27 ± 0.32 | 4.51 ± 0.17 | – | –
TNVESQLAEIRSDLERQNQEYQVL [KRT33B] | 4.52 ± 0.26 | 4.56 ± 0.25 | – | –
SASAKRVWNMTATRPKKMGSQLPK [FATE1] | 3.76 ± 0.27 | 3.79 ± 0.18 | – | –
GEQVGRGPGFHAGTSALWRHLRSA [ZBED3] | 3.35 ± 0.13 | 3.27 ± 0.27 | – | –
GKGWKATRLFHDSAVTSVRILQDE [DCAF4] | 3.39 ± 0.21 | 3.67 ± 0.34 | – | –
AEKETELSLQKEQLQLKIIEIEDE [TRIM29] | 5.42 ± 0.26 | 5.45 ± 0.26 | – | –
QTLQALNFCHIHNCIHRDIKPENI [CDKL4] | 2.47 ± 0.28 | 2.34 ± 0.26 | – | –
IYRKYRKLIESELSYFVIVYSVM [FBXO39] | – | – | 2.87 ± 0.62 | 2.89 ± 0.44
TCSTRFVSGGSAGGYGGGVSCGFG [KRT13] | 2.46 ± 0.29 | 2.43 ± 0.31 | – | –
PRLVSETAERKQEQKTGTEAEAAD [MFSD9] | 5.77 ± 0.12 | 5.61 ± 0.25 | – | –
SHAIHVEEQSDQSFSSLEPDNEQL [IQUB] | 5.38 ± 0.27 | 5.63 ± 0.17 | – | –
HRIWMYNCHIGGSFSEETEKKFEH [LOXL2] | 2.42 ± 0.21 | 2.62 ± 0.34 | – | –
TTTDHSSNPGPVPGSSSGPVLGSS [SPAG8] | 5.08 ± 0.16 | 5.13 ± 0.09 | – | –
CEALINRVSAMRDYRGPDCRYLNF [MIA2] | 2.3 ± 0.33 | 2.53 ± 0.14 | – | –
PWTKEEDQKVIELVKKYGTKQWTL [MYBL2] | 2.61 ± 0.24 | 2.72 ± 0.16 | – | –
YILLVTSDVLTISGTIMKIGIEAK [MCOLN1] | 3.09 ± 0.5 | 3.17 ± 0.39 | – | –
EETTSQDWGTPRELTFSYIAFDGV [RTN2] | 2.65 ± 0.15 | 2.8 ± 0.61 | – | –
YSSGSYDSIKTEVSGCPEDLTVGR [NOL4L] | 4.49 ± 0.23 | 4.44 ± 0.23 | – | –
NVIDRMKESSPSGSKSQRYSGAYG [CHCHD3] | 4.13 ± 0.4 | 4.13 ± 0.15 | – | –
